Test results as given in publication PMC3019558 (The Journal of Cell Biology, 2011).

B1: persephin (PSPN) (ligand, UniProt O60542 61-156, looked up)
chain: ALSGPCQLWSLTLSVAELGLGYASEEKVIFRYCAGSCPRGARTQHGLALARLQGQGRAHGGPCCRPTRYTDVAFLDDRHRWQRLPQLSAAACGCGG

How the values were obtained:
GDNF, NRTN, and ARTN = test: SPR
[1] = biological target: HS-carrying extracellular domain of syndecan-3 purified from rat brain (rat, UniProt P33671 45-387, heparan sulfate (HS) chains); test: SPR
Chain of HS-carrying extracellular domain of syndecan-3 purified from rat brain (rat, UniProt P33671 45-387, heparan sulfate (HS) chains) (P33671 45-387): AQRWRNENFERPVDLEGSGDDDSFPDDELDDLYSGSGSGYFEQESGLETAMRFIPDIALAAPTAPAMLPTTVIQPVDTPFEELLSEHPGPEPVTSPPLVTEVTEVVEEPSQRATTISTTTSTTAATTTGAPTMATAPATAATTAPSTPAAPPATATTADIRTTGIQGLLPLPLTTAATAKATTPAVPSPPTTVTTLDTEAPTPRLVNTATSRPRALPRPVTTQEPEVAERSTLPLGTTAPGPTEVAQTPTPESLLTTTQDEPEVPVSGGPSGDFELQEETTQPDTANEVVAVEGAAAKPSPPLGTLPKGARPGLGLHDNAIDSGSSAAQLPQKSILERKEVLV

Molecule	Kd (GDNF, NRTN, and ARTN) [nM]	Kd [1] [nM]
HS-carrying extracellular domain of syndecan-3 purified from rat brain (from UniProt P33671 45-387) (domain or fragment)	10 to 50	–
B1	–	> 70
